Assay results reported in US20130309670.

Legend:
[1] = tested on: Il2rg ZFN-1 (zinc finger-FokI nuclease) (synthetic construct); assay: cell_activity; conditions: pair ZFN-1+ZFN-2, clones with ZFN cleavage (6/192) in mouse F1H4 ES cells without LTVEC; 6.9% among non-targeted clones with LTVEC; 6 bp spacer
[2] = tested on: Il2rg ZFN-2 (zinc finger-FokI nuclease) (synthetic construct); assay: cell_activity; conditions: pair ZFN-1+ZFN-2, clones with ZFN cleavage (6/192) in mouse F1H4 ES cells without LTVEC; 6.9% among non-targeted clones with LTVEC; 6 bp spacer

| Sequence | activity [1] [%] | activity [2] [%] |
| --- | --- | --- |
| AGCTCCAAGGTCCTC (double strand) [Il2rg exon 1 ZFN-1 half-site (sense strand)] | 3.1 | – |
| GTCTTCATTCGCACT (double strand) [Il2rg exon 1 ZFN-2 half-site (antisense strand)] | – | 3.1 |
